# Test results taken from paper PMC5430804, “Structural and biochemical insights of CypA and AIF interaction” (Scientific Reports, 2017).
# *: point of attachment. Dabcyl = CN(C)c1ccc(N=Nc2ccc(C(=O)*)cc2)cc1; EDANS = O=S(=O)(O)c1cccc2c(NCCN*)cccc12
# Experiments:
# [1] = tested on: CypA and CypA^R55A; assay: EnSpire label-free binding of AIF to immobilized CypA and CypA^R55A; conditions: CypA and CypAR55A immobilized, means of triplicates
# Method: (§1) Direct binding assays were performed with the Corning Epic label-free technology with the EnSpire Multimode Plate Reader (PerkinElmer, Rodgau, Germany) as reported in literature.1 Briefly, […]
# (§2) µg/mL streptavidin solution in 20 mM sodium acetate at pH 4.0, for 16 h at 4 °C. The microplate was subsequently washed three times with phosphate-buffered saline (PBS 1X, pH 7.4). After […]
# (§3) assay buffer (PBS 1X, pH 7.4) for 2 hours followed by three washing steps in PBS 1X at pH 7.4.
# (§4) After 2 h incubation, a baseline reading was recorded. Then 30 µL of peptide samples were dispensed in the plate. The final readings were taken over a period of 1 hour. Label-free responses were measured as shifts in reflected wavelength and were expressed in picometers (Fig. S4). The difference between the last baseline measurements and the maximum signal was used to determine the KD values (Table 1 in the main text). […]
# biosensor by adding directly 100 µg/mL of protein in 20 mM sodium acetate pH 4.0, for 16 h at 4 °C (Fig. S5). […]
# the procedure described above. Results were analyzed using the EnSpire label-free user interface software. […]
# coated with CypA wild type with and without the CsA. Results were analyzed using the EnSpire label-free user interface software. […]
# (B). Results were analyzed using the EnSpire label-free user interface software. […]
# [2] = tested on: CypA-CsA preformed complex; assay: ITC competition: AIF(370-394) titrated onto CypA-CsA preformed complex; format: binding; conditions: AIF(370-394) 5 to 500 μM titrated onto CypA-CsA complex, 25 °C
# Method: Figure 5 ITC binding assay. […] The bottom panels show the integrated heat of each injection after correction for the heat of dilution of ligands. Curves represent the best fit to a single-site binding model. (C, D) ITC competition assays.
# ITC experiments were performed at 25 °C using a MicroCal ITC200 (GE Healthcare Bio-Sciences AB, Sweden). Protein and peptide samples were dialyzed in phosphate saline buffer (PBS 1X) containing 1 mM DTT, pH 7.4. […] Data were analyzed using the “Origin” software (MicroCal). The dissociation constant (KD), molar binding stoichiometry (n) and the binding enthalpy (ΔH), entropy (ΔS) and Gibbs free energy (ΔG) were determined by fitting the binding isotherm to a one-site model with MicroCal Origin software. All ITC experiments were performed in triplicate.
# [3] = tested on: CypA/CsA complex; assay: NMR competition with preformed CypA/CsA complex; format: binding; conditions: AIF(370-394) gradually added to preformed CypA/CsA complex
# [4] = tested on: CypA and CypA^R55A; assay: Competition of CypA/substrate complex formation (fluorescence quenching); format: binding
# Excerpt: Results are means of triplicates.
# (§5) (1 picture or pasted object on this page, not shown here)
# [5] = biological target: T1, CypA (Homo sapiens, UniProt P62937); conditions: binding to CypA; cited from earlier work
# T1 construct: His tag (6His); made in house
# T1 sequence (P62937 whole entry): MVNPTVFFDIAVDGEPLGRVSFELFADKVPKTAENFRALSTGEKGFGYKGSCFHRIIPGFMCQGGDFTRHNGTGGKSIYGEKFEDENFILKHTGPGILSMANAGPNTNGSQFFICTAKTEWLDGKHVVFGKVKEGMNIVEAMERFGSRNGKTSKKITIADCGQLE
# Excerpt: CSPs were quantified in terms of ΔδHNavs and classified as strong, medium and weak (see Methods section for details).
# [6] = tested on: AIF(Δ1-121)/CypA complex; design: method as in PMID 24434516; conditions: cited from earlier work
# [7] = tested on: neuronal cells; design: method as in PMID 24434516; conditions: cited from earlier work
# [8] = biological target: T1, CypA; assay: Fluorescence quenching binding of FRET substrate; conditions: excitation 340 nm, emission 510 nm
# Excerpt: probe clusters) and CS003 (11 probe clusters), CS004 (7 probe clusters), CS005 (4 probe clusters), CS006 (4 probe clusters) and CS007 (4 probe clusters), CS008 (3 probe clusters), CS009 (2 probe clusters). The top scoring ligand-binding site identified by FTMap on CypA is the active site, while the second, CS001 (Figure S7) is constituted by loops connecting α1-β3 (G42-C52) and a portion of the loop connecting β4-β5 (G65-S99), close to the catalytic site of CypA within the same interaction surface identified by NMR studies and mapped by trypsin MS-based foot-printing and contains 19 probe clusters. […]
# Fluorescence-based assays
# Fluorescence quenching assays were performed using the FRET substrate Ac-EK(Dabcyl)PPFAE(EDANS)KA-NH2 (MW 1556.2 amu) reported in literature.6 At 0.23 ng/μL (0.15 μM) the substrate provides a significant fluorescence emission at 510 nm compared to the buffers used in the assay (PBS 1X) (Figure S8A). […] Kinetic constants were determined by fitting data of fluorescence maxima at 510 nm of EDANS upon protein additions. […]
# (Fig. S8B, red and blue lines, respectively) on the CypA/substrate complex formation were determined using a 10-fold excess (1.5 μM) of compounds. […]
# Figure S8. Binding assay based on fluorescence quenching. (A) Fluorescence emission spectrum of CypA substrate. Samples were excited at 340 nm, and the emission in the range of 450-600 nm was measured. […]
# [9] = biological target: T2, AIF(370-394) (Homo sapiens, UniProt O95831); assay: EnSpire label-free direct binding to AIF(370-394); conditions: for KD: Corning Epic/EnSpire label-free, biotinylated AIF(370-394) immobilized on streptavidin-coated biosensor, PBS 1X pH 7.4, readings over 1 hour, means of triplicates; for binding / affinity for AIF(370-394), in words: EnSpire label-free
# T2 construct: host or cells: chemical synthesis (synthetic peptide)
# T2 sequence (O95831 370-394 limits assumed): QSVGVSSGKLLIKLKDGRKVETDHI
# Method: Although peptide-peptide interaction insights might be prejudiced by the lack of appropriate 3D structures and require additional experimental assessment with full length proteins, they can mimic and anticipate in several cases real interactions. […] KD values determined by this approach are reported in Table 1 and the binding curves are shown in Supplementary Fig. S4.
# as §1, §2, §3, §4
# (§6) biosensor by adding directly 100 µg/mL of protein in 20 mM sodium acetate pH 4.0, for 16 h at 4 […]
# (§7) by adding 200 µg/mL of protein in 20 mM sodium acetate pH 5.5, for 16 h at 4 °C. […]
# (§8) the procedure described above. Results were analyzed using the EnSpire label-free user interface software. Plots were generated using GraphPad PrismR V-5.01 (GraphPad Software, La Jolla, CA). […]
# Graphs were generated using GraphPad PrismR V-5.01 (GraphPad Software, La Jolla, CA). Results are means of triplicates.
# as §5
# [10] = biological target: AIF(Δ1-121) (Homo sapiens, UniProt O95831); assay: EnSpire label-free direct binding to AIF(Δ1-121); conditions: for KD: Corning Epic/EnSpire label-free, AIF(Δ1-121) immobilized on biosensor (100 µg/mL, 20 mM sodium acetate pH 4.0), PBS 1X pH 7.4, readings over 1 hour, means of triplicates
# Sequence of AIF(Δ1-121) (O95831 122-613, stated change not applied): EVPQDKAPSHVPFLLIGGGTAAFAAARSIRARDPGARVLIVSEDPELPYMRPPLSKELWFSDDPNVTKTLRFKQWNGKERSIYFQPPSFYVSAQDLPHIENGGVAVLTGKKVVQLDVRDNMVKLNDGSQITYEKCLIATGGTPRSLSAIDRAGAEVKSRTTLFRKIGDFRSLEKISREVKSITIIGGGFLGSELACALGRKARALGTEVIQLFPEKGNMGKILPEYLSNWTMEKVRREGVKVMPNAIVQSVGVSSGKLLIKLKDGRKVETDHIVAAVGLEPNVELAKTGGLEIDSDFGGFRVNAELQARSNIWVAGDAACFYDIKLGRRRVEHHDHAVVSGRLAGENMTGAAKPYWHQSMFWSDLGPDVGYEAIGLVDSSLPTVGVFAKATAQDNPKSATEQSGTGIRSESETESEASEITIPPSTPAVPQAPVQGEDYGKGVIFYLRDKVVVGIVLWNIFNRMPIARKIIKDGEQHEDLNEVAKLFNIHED
# Method: as §1, §2, §3, §4, §6, §7, §8
# Results were analyzed using the EnSpire label-free user interface software. Graphs were generated using GraphPad PrismR V-5.01 (GraphPad Software, La Jolla, CA). Results are means of triplicates.
# as §5
molecule,measurement,setting,value
CC[C@H](C)[C@H](NC(=O)[C@H](Cc1c[nH]cn1)NC(=O)[C@H](CC(=O)O)NC(=O)[C@@H](NC(=O)[C@H](CCC(=O)O)NC(=O)[C@@H](NC(=O)[C@H](CCCCN)NC(=O)[C@H](CCCNC(=N)N)NC(=O)CNC(=O)[C@H](CC(=O)O)NC(=O)[C@H](CCCCN)NC(=O)[C@H](CC(C)C)NC(=O)[C@H](CCCCN)NC(=O)[C@@H](NC(=O)[C@H](CC(C)C)NC(=O)[C@H](CC(C)C)NC(=O)[C@H](CCCCN)NC(=O)CNC(=O)[C@H](CO)NC(=O)[C@H](CO)NC(=O)[C@@H](NC(=O)CNC(=O)[C@@H](NC(=O)[C@H](CO)NC(=O)[C@H](CCC(N)=O)NC(C)=O)C(C)C)C(C)C)[C@@H](C)CC)C(C)C)[C@@H](C)O)C(N)=O [AIF(370-394)],binding to CypA versus CypA^R55A,[1],bound CypA and CypA^R55A in a similar way
same,heat exchange,[2],no apparent heat exchange was observed
same,AIF(370-394) interaction with CypA after CsA binding,[3],CsA binding to CypA did not fully abrogate the AIF(370-394) interaction with CypA
same,effect on CypA and CypA^R55A binding to substrate,"[4]; 10-fold excess (1.5 μM) of compound, fluorescence quenching, 510 nm, triplicates",unable to prevent the binding of both CypA and CypA^R55A to the substrate
same,effect on enzyme-substrate recognition,"[4]; larger excess of AIF(370-394), not shown",does impair the enzyme-substrate recognition
same,"KD, in words",[5],low micromolar range
same,inhibition of AIF(Δ1-121)/CypA complex formation in vitro,[6],able to inhibit the AIF(Δ1-121)/CypA complex formation in vitro
same,neuroprotection,[7]; AIF(Δ1-121)/CypA-mediated glutamate-induced cell death,pronounced neuroprotection
same,nuclear translocation of AIF and CypA,[7],blocking the nuclear translocation of the two proteins
AIF(Δ1-121): apoptogenic (pro-apoptotic) form of AIF,binding to CypA versus CypA^R55A,[1],bound CypA and CypA^R55A in a similar way
"Ac-EK(Dabcyl)PPFAE(EDANS)KA-NH2 (SMILES CC(=O)N[C@@H](CCC(=O)O)C(=O)N[C@@H](CCCCNC(=O)c1ccc(N=Nc2ccc(N(C)C)cc2)cc1)C(=O)N1CCC[C@H]1C(=O)N1CCC[C@H]1C(=O)N[C@@H](Cc1ccccc1)C(=O)N[C@@H](C)C(=O)N[C@@H](CCC(=O)NCCNc1cccc2c(S(=O)(=O)O)cccc12)C(=O)N[C@@H](CCCCN)C(=O)N[C@@H](C)C(N)=O) [CypA substrate, FRET substrate of CypA, MW 1556.2 amu]",Δfluorescence emission vs buffer,[8],319 a. u.
CypA wild type: His-tagged CypA protein,Kd,"[9]; full-length protein: CypA / CypAR55A immobilized (200 µg/mL, sodium acetate pH 5.5), AIF(370-394) added at several concentrations, means of triplicates (Fig. S7A)",3 ± 0.6 µM
CypA(55-69)R69: CypA(55-69) with R69 replaced by alanine (RIIPGFMCQGGDFTA),KD,[9],No binding
same,"binding / affinity for AIF(370-394), in words",[9],completely abrogated the binding to both the AIF forms
same,"binding / affinity for AIF(Δ1-121), in words",[10]; EnSpire label-free,completely abrogated the binding to both the AIF forms
"CypA(83-90): CypA-derived synthetic peptide, residues 83-90 (FEDENFIL)",KD,[9],No binding
same,KD,[10],No binding
"CypA(136-150): CypA-derived synthetic peptide, residues 136-150 (MNIVEAMERFGSRNG)",KD,[9],No binding
same,"binding / affinity for AIF(370-394), in words",[9],did not interact with AIF(370-394)
same,KD,[10],No binding
"CypA(154-165): CypA-derived synthetic peptide, residues 154-165 (KKITIADCGQLE)",KD,[9],No binding
same,"binding / affinity for AIF(370-394), in words",[9],did not interact with AIF(370-394)
same,KD,[10],No binding
